The source of these data is US20250034245A1 (FRED HUTCHINSON CANCER CENTER, published 2025).

Assay [1] has as its target T1, full-length human Siglec-8 (Siglec-8^FL) (human, UniProt Q9NYZ4 17-499).
T1 construct: whole, on cells; Expressed by lentiviral transduction on K562, RS4;11, TF-1, EOL-1 and other cells; the same id is used for Siglec-8 endogenously expressed on LUVA cells, HMC1.2 cells and primary human eosinophils; also called Siglec-8^Hu; SAF2
Briefly: flow cytometry on K562 cells expressing Siglec-8 FL (FIG. 9C). As to the method:
(§1) FIGS. 9A-9D. Human Siglec-8 mAbs were tested flow cytometrically against (FIG. 9A) parental human lymphoid RS4; 11 cells (endogenously lacking Siglec-8 expression) and a subline engineered to express Siglec-8^FL, (FIG. 9B) parental human mast cell line, HMC1.2, enriched for expression of endogenous Siglec-8; and (FIG. 9C) parental human myeloid K562 (endogenously lacking Siglec-8 expression) and sublines of K562 cells engineered to express either Siglec-8^FL, Siglec-8^ΔE2, or Siglec-8^V-set; and (FIG. 9D) primary human eosinophils, as indicated. A negative control without primary mAbs was included, as was, in some experiments, a negative control with a non-binding primary mAb (13R4).
In general terms: In flow cytometry, cells or beads pass a laser one at a time.

Assay [2] has as its target T1, full-length human Siglec-8 (Siglec-8^FL). Kind of assay: flow cytometry on Siglec-8-expressing cells, in some experiments of FIGS. 9A-9D. As for the experimental part: as §1

T1 sequence (Q9NYZ4 17-499): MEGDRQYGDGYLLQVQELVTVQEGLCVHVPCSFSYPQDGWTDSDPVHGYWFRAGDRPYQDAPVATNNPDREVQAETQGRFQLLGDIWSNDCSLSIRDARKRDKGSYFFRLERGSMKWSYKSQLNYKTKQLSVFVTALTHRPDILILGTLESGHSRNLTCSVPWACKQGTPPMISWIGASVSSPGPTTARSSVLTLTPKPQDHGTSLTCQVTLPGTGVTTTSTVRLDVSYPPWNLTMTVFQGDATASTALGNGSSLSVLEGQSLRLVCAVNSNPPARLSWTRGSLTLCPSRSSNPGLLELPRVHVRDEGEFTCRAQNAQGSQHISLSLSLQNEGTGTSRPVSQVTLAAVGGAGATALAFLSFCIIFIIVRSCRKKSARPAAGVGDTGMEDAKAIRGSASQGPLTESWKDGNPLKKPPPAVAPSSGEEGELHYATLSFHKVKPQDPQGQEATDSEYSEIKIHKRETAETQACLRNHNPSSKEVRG

B1: S8-ATX2F10 (antibody, V domains shown)
VH: EVQLVESGGDLVKSGGSLRLSCAASGFTFSDAWMSWVRQAPGKGLEWVGRIQSKTDGGTTDYVAPVKGRFTISRDDSKDTLYLHMNSLTTEDTAVYYCTTDLYYYGSGSYFLGQGTLVTVSS
VL: DIQMTQSPSSLSASVGDRVTITCRASQNIITYLNWYQQKPGKAPKLLIYAASSLQSGVPSRFSGSGSGTDFTLTISSLQPEDFAIYHCQQSYNVPTTFGQGTKLEIK
notes: Only variable domains are tied to the name in the text; also IgG4 (S228P); also called Sig8-2F10; S8-2F10
As to B1, the binding result in assay [1] is “binds”.

B2: negative control mAb 13R4 (recognizing E. coli beta-galactosidase) (antibody, V domains shown)
VH: EVQLVESGGSLVKPGGSLRLSCAASGFTFSNYSMNWVRQAPGKGLEWISSISGSSRYIYYADFVKGRFTISRDNATNSLYLQMNSLRAEDTAVYYCVRSSITIFGGGMDVWGRGTLVTVSS
VL: QSVLTQPASVSGSPGQSITISCAGTSSDVGGYNYVSWYQQHPGKAPKLMIYEDSKRPSGVSNRFSGSKSGNTASLTISGLQAEDEADYYCSSYTTRSTRVFGGGTKLAVLG
With B2, the binding result in assay [2] was “no binding”.

B3: S8-ATX1E4 (antibody, V domains shown)
VH: QVQLVQSGSELKKPGASVKVSCKTSGYTFTSYAMNWVRQAPGQGLEWMGWINTNTGNPTYAQGFRGRFVFSLDTSVSTAYLQISSLKAEDTAVYYCARDKYSSSWYWFDSWGQGTLVTVSS
VL: DIQMTQSPSSLSASVGDRVTITCRPSQNISSYLNWYQQKPGKAPKLLIYAASSLRSGVPSRFSGSGSGTDFTLTVSSLQPEDFANYYCQQSYSTPYTFGRGTKLEIK
notes: Only variable domains are tied to the name in the text; Produced as recombinant human IgG1 and IgG4 (S228P), kappa light chain; also called Sig8-1E4
Regarding B3, the binding result in assay [1] is given as “binds”.

B4: S8-ATX1E1 (antibody, V domains shown)
VH: EVQLVESGGGLVQPGRSLRLSCAASGFMFDDYVMHWVRQAPGKGLEWVSGINWNSDNIGYADSVKGRFTISRDNAKNSLFLQMNSLRVEDTALYYCAKDIDAAAFDYWGQGTLVTVSS
VL: DIVMTQSPLSLPVTPGEPASISCRSSQSLLHSNGYSYLAWYLQKPGQSPQLLIYLVSNRASGVPDRFTGSGSGTDFTLKISRVEAEDVGVYYCMQALQTPWTFGQGTKVEIK
notes: Only variable domains are tied to the name in the text; Produced as recombinant human IgG1 and IgG4 (S228P), kappa light chain; also called Sig8-1E1
For the molecule B4, the binding result in assay [1] is on record as “binds”.

B5: S8-ATX1B6 (antibody, V domains shown)
VH: QVQLVESGGGVVLPGRSLRLSCAASGFTFNIYGMHWVRQAPGKGLEWVAVISYDGNNKEYADSVKGRFTISRDSSRNTLYLQMNSLRAEDTAVYYCAKRGYGSSSLEFWGQGTLVTVSS
VL: DIQMTQSPSSLSASVGDRVTITCRSSQDIRNDLGWYQQKPGKAPKRLIYASSNLQSGVPSRFSGSGSGTEFTLTISSLQPDDFATYYCLQHNTYPYTFGQGTKLEIK
notes: Only variable domains are tied to the name in the text; also made as IgG4 (S228P); also called Sig8-1B6; 11B6
Turning to B5, the binding result in assay [1] is listed as “binds”.

B6: S8-ATX1B4 (antibody, V domains shown)
VH: QVQLVESGGGVVQPGRSLRLSCAASGFTFSIYGMHWVRQAPGKGLEWVAVISYDGNNKDYTDSVKGRFTISRDNSKNTLYLQMNSLTAEDTAVYYCAKRGYGSSSLEFWGQGTLVTVSS
VL: DIQMTQSPSSLSASVGDRVTITCRASQDIRNDLGWYQQKPGKAPKRLIYATSSLQSGVPSRFSGSRSGAEFTLTVSSLQPEDFATYYCLQHNTYPYTFGQGTKLEIK
notes: Only variable domains are tied to the name in the text; Produced as recombinant fully human IgG1 and IgG4 (S228P) with a kappa light chain; also called Sig8-1B4; 11B4
As to B6, the binding result in assay [1] was “binds”.

B7: S8-ATX1H4 (antibody, V domains shown)
VH: QVQLVQSGTEVKYPGASVKVSCKASGYTFIDYGISWVRQAPGQGLEWMGWISAYNGNTDYAQKLQGRVTMTTDTSTSTAYMDLRSLRSDDTAVYYCAREGEGYCTYGVCPSFDYWGQGTLVTVSS
VL: EIVLTQSPGTLSLSPGERATLSCRASQSVSSSYLAWYQQKPGQAPRLLIYGASTRGTGIPDRFSGSGSGTDFTLTISRLEPEDFALYYCQQYGSSPYTFGQGTKLEIK
notes: Only variable domains are tied to the name in the text; Produced as recombinant human IgG1 and IgG4 (S228P), kappa light chain; also called Sig8-1H4
Regarding B7, the binding result in assay [1] is “binds”.

B8: S8-ATX2A3 (antibody, V domains shown)
VH: QVQLQESGPGLVKPSETLSLTCTVSGASISGYYWNWIRQPPGKGLEWIGYIHYSGTTNYNPSLKSRITISLDTSENQFSLRLSSVTAADTAVYYCARDWYTGYDWEGFDYWGQGTLVTVSS
VL: QSVLTQPPSVSGAPGQRVSFSCTGTSSNIGTGFDVHWYRQLPGTAPKVLIYNNNNRPSGVPDRFSASKSGTSASLAITGLQAEDEADYYCQSYDSSLSGSVFGGGTRLTVL
notes: Only variable domains are tied to the name in the text; IgG1 format in ADCC and eosinophil assays; also called Sig8-2A3
Take B8: in assay [1], the binding result is recorded as “binds”.
